# Test results taken from CN117736312A (SHANGHAI BOVAX BIOLOGICAL SCIENCE & TECH CO LTD, dated 2024).
# T1: HPV31L1 (human papillomavirus type 31, UniProt P17388 1-504)
# T1 sequence: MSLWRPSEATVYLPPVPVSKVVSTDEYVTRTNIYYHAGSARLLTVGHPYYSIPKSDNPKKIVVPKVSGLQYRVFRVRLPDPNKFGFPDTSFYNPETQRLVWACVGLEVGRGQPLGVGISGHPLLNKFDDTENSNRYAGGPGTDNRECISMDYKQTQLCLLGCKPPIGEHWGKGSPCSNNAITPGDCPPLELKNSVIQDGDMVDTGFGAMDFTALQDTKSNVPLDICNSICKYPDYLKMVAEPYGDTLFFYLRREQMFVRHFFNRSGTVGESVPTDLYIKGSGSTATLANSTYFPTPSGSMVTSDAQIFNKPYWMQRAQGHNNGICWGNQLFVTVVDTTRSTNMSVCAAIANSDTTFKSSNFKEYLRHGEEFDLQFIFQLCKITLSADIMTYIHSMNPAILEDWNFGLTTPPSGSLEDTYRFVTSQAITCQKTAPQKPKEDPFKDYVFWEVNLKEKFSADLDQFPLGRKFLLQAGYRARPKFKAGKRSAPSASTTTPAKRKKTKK
# T2: HPV33L1 (human papillomavirus type 33, UniProt P06416 1-499)
# T2 sequence: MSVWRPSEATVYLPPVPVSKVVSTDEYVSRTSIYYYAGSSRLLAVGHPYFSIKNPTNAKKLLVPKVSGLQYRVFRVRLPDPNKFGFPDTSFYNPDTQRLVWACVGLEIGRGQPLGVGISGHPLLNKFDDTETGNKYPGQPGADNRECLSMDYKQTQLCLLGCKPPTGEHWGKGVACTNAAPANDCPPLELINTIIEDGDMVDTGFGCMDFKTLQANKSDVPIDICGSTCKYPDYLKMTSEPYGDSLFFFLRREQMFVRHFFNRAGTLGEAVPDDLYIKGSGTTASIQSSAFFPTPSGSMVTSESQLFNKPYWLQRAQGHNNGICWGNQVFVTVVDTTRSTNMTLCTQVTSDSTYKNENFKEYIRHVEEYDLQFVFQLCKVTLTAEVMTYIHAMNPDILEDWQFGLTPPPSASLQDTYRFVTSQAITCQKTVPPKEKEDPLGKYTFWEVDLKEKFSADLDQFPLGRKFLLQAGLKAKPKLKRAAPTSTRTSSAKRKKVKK
# T3: HPV56L1 (human papillomavirus type 56, UniProt P36743 36-534)
# T3 sequence: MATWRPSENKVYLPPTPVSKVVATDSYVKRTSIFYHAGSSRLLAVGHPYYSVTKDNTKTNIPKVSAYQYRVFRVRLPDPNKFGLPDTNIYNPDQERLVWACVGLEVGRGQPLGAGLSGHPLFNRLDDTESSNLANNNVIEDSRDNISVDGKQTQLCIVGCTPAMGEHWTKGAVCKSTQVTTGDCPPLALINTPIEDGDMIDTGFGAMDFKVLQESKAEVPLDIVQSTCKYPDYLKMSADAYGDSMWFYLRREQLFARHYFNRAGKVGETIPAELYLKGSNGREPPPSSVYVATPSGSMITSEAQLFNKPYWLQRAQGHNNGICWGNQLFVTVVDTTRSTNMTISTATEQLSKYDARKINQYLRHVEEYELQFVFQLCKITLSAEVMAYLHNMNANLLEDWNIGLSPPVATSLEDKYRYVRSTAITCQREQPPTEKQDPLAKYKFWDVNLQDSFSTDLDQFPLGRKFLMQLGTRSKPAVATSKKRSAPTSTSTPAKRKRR
# Columns and labels:
# Experiment in all cases: sandwich ELISA (rabbit anti-L1 capture)
# HPV31L1 = molecular target: T1, HPV31L1
# HPV33L1 = molecular target: T2, HPV33L1
# HPV56L1 = molecular target: T3, HPV56L1
binder,measurement,setting,value
"HPV 59编号为30单克隆抗体 (antibody, V domains shown, Mouse hybridoma antibody tested as cell supernatant; also called 59H30) VH: QIQLVQSGPELKKPGETVKISCKASGYTFTDYSMHWVKQAPGKGLKWMGWINTETGEPTYADDFKGRFAFSLETSASTAYLQINNLKIEDTATYFCTRDGYVWYFDVWGAGTTVTVSS VL: QIVLSQSPAILSASPGEKVTMTCRASSSVNYMHWYQQKPGSSPKPWIYATSNLASGVPARFSGSGSGTSYSLTISRVEAEDAATYYCQQWSSNPIFTFGSGTKLEIK",binding result,HPV31L1,no binding (tested: 原液40μg/ml; 细胞上清1:100)
same,binding result,HPV33L1,no binding (tested: 原液40μg/ml; 细胞上清1:100)
same,binding result,HPV56L1,no binding (tested: 原液40μg/ml; 细胞上清1:100)
